Common to all, as to format: cell-based
In one assay the test system is β-arrestin2-GFP. The assay can be described thus: β-arrestin2-GFP recruitment to the membrane by confocal microscopy. Particulars: isoproterenol; co-expressed mutant protein. The procedure: (§1) Confocal Microscopy—Confocal microscopy was performed as previously described. […] Cells were split into 35 mm^2 dishes with glass bottoms for observation using a Zeiss LSM-510 confocal microscope. […] For analyses of the HEAT domain, HEK 293 cells were transfected with the plasmids containing cDNAs encoding either the β2AR-YFP (2 μg) or β2AR-YFP (2 μg) and HEAT domain (4 μg). Cells were plated onto glass bottom dishes for observation in the confocal microscope. […] Cells were permeablized with 0.1% Triton X-100 in phosphate-buffered saline for 20 min, incubated in 1% BSA in phosphate-buffered saline for 1 hr. Cells were washed with 1× phosphate-buffered saline and incubated with anti-HA or anti-FLAG monoclonal antibody (1:250) with 1% BSA in 1× phosphate-buffered saline for 1 hr. Cells were washed and incubated with goat anti-mouse IgG conjugated with Texas Red (1:500) (Molecular Probes) for 1 hr. Samples were visualized using single sequential line excitation filters at 488 and 568 nm and emission filter sets at 505-550 nm for GFP detection and 585 for Texas Red detection.
To exclude these possibilities cells were co-transfected with plasmids containing FLAG β2AR, β-arrestin2-GFP and either PI3Kγ or ΔPI3Kγ cDNAs, and were monitored for the recruitment of β-arrestin2-GFP using confocal microscopy. […] Marked redistribution of β-arrestin2-GFP to the membrane occurred within 2.5 minutes. […]

The target of the next assay is T1, β2AR-YFP (Homo sapiens, UniProt P07550).
T1 construct: expressed in transfected cells; host or cells: HEK 293
The experiment in a line: Endocytosis of β2AR-YFP in live cells by confocal microscopy. Particulars: 10 μM isoproterenol, 10 min; HEAT co-expressed. The procedure: as §1
Prior to agonist, the distribution of β2AR-YFP was found distinctly at the plasma membrane (FIG. 11B, panel 1). […] With time, this was followed by the formation of cytoplasmic aggregates (FIG. 11B, panel 3), and then with the complete loss of membrane fluorescence (FIG. 11B, panels 3 and 7) (arrowheads).

For a further assay, the system named is β2AR. The assay can be described thus: β2AR sequestration in HEK-293 cells by 125I-Cyanopindolol binding. Particulars: 1 μM isoproterenol, 0-30 min; FLAG-HEAT co-transfected. The procedure: Determination of β2AR Sequestration in HEK-293 Cells by ^125I-Cyanopindolol (CYP) Binding—β2AR sequestration was performed as previously described. Briefly, HEK-293 cells were plated at a density of 2.5×10^6 cells/dish and transfected the following day with plasmids containing either the β2AR (150-250 ng), β2AR (250 ng) and HEAT domain (4 μg), PI3Kγ (4.0 μg) or ΔPI3Kγ (4.0 μg) cDNAs. Twelve hours after transfection cells were split into six well Falcon plates at a density of 750,000 cells/well. […] To determine the amount of internalized receptor, 100 μl aliquots of whole cells were added to 150 μl of binding buffer (75 mM Tris-HCl, 10 mM MgCl2, 5 mM EDTA (pH 7.5)). Total binding was determined in the presence of 175 pM ^125I-CYP alone, the number of internalized receptors were determined by using 175 pM ^125I-CYP plus 100 nM CGP12177, and non-specific binding was determined using 175 pM ^125I-CYP plus 1 μM propranolol. Sequestration was calculated as the ratio of (specific receptor binding of ^125I-CYP in the presence of CGP12177)/(specific receptor binding of ^125I-CYP in the absence of CGP12177).

Another assay has as its system βARK1. The experiment in a line: βARK1 recruitment to the membrane (immunoblot of membrane fraction). Particulars: 10 μM isoproterenol; HEAT 4 μg. Here is the method: Cytosolic and Membrane Fractionation—Cell monolayers were scraped in 1 ml of buffer containing 25 mM Tris-HCl (pH 7.5), 5 mM EDTA, 5 mM EGTA, 1 mM phenylmethylsulfonyl fluoride, 2 μg/ml each of leupeptin and aprotinin and disrupted further by using Dounce homogenizer. Intact cells and nuclei were removed by-centrifugation at 1,000×g for 5 min. The collected supernatant was further subject to a centrifugation at 38,000×g for 25 min. The pellet was resuspended in lysis buffer (1% Nonidet P-40, 10% glycerol, 137 mM NaCl, 20 mM Tris-Cl (ph 7.4), 1 mM phenylmethylsulfonyl fluoride, 20 mM NaF, 1 mM sodium pyrophosphate, 1 mM sodium orthovanadate and 2 μg/ml each of aprotinin and leupeptin) and used as membrane fraction and the supernatant was diluted in lysis buffer and used as the cytosolic fraction. Heart samples also underwent through similar procedures to obtain membrane and cytosolic fractions. Purity of the membrane fraction preparation was confirmed by measuring enzyme activity of the membrane marker enzyme K^+-stimulated p-nitrophenylphosphatase (membrane fraction: 9.4 μmol/mg protein per min, cytosol: 2.6 μmol/mg of protein/min). […]
Cytosolic and membrane fractions were prepared and analyzed for βARK1 associated PI3K activity. […]
(A western blot detects proteins with antibodies after separation by electrophoresis.)

Another assay deals with phospho-PKB. The assay can be described thus: PKB activation (phospho-PKB immunoblot) in HEK 293 cells. Particulars: IGF, carbachol or isoproterenol stimulation; HEAT transfected.

B1: HEAT: 197 amino acid HEAT domain of PI3Kγ, FLAG epitope-tagged (SEQ ID NO: 2), overexpressed in cells (protein, listed as Homo sapiens)
chain: MDYKDDDDKHPIALPKHQPTPDDRVRAEMPNQLRKQLEAIIATDTAEDKELLWHFRYESLKHPKAYPKLFSSVKWGQQEIVAKTYQLLARREVWDQSALDVGLTMQLLDCNFSDENVRAIAVQKLESLEDDDVLHYLLQLVQAVKFEPYHDSALARFLLKRGLRNKRIGHFLFWFLRSEIAQSRHYQQRFAVILEAYLRGCGTA
modifications: FLAG tag
B1: in the assay with β-arrestin2-GFP, the “recruitment of β-arrestin2-GFP to the receptor/membrane after agonist” value is “did not affect”. Further, in the assay with β2AR-YFP, the “receptor endocytosis (redistribution of β2AR-YFP)” value is “completely inhibited”. The “attenuation in the rate of β2AR sequestration” value in the assay on β2AR is greater than 60%. Further, in the assay on βARK1, the “membrane recruitment of βARK1 following isoproterenol” value was “no effect”. In addition, the “cellular signaling downstream of PI3K (PKB activation)” value with phospho-PKB is reported as “no effect”.

The values above are taken from patent publication US20060026702A1, “Phosphoinositide 3-kinase mediated inhibition of GPCRs” (DUKE UNIVERSITY, priority 2002, published 2006).
